Among the data in publication PMC4592603, “Cloning, Expression, Sequence Analysis and Homology Modeling of the Prolyl Endoprotease from Eurygaster integriceps Puton” (Insects, 2014) are Km values, retold here.

Substrate in this data set: O=C(NCC(=O)N1CCC[C@H]1C(=O)Nc1ccc([N+](=O)[O-])cc1)OCc1ccccc1
Put plainly: purified protein. The class given is biochemical, Eurygaster integriceps. Particulars: 25 mM ethanolamine, pH 8.5, 0.1 M NaCl, 1 mM DTT, 37 °C, abstract prints 210 ± 53 µM.

Usually Km stands for the substrate concentration at which the rate is half of its maximum.

B1: spPEP (sunn pest prolyl endoprotease) (Eurygaster integriceps) (protein)
chain: MKKFQYPEARRDETIKETFFGIEVADPYRWLEDPDSEETKNFVDAQNSISEPYLKGCPARDKIKARLTQMLDYPKYSPPEKEGNHYFYFKNTGLQNHSVLYMQDSLDGPSKVFLDPNTFSSDGTVALTSTSFSEDGSIMGYTVSKSGSDWCTIHFRRVDTGEDYPEELKFVKFGHAAWTHDNLGVFYTRFPEVEGKSDGSETSQNRNQKIYYHKVGTPQSEDILVVELDDPEYIYTVCVSDCGRGVVILPSKFCHNNLVYFSDLSTLKDGIKGKLDVTCIVDKFEADYEFVANTGSKFVFRTNKNAHNYKLVVIDFENHSEENWVTLVPEHPTDVLEQAVSVAQDKLVLCYIRDVKNTLDIHSLVDGSLIRKIPVPIGTVSSISGSKKHSEVFYTFISFTSPGTIYRCDLSQSPIPDPEVFRQITIPGYDPSMFEEKQVFYLSKDGTRIPMFLVHKKVLEQNGKNPCLVYGYGGFNISLLPMFSTIRLVFVQYFNAVFASANIRGGGEYGEKWHDGGRLLNKQNSFDDFIAAGEYLIAEKYTNKSCLAIQGASNGGLLIGASVKPPYWLLEDPEYIYTVCVSDCGRWAVILPSKFCYNNLVYFSVLFQEEHFKNVLKYSPLHNIRVPEDQYPALLLLTASHDDRVVPLHSLKYIAQLQHVMRDNPKQENPLLIQVETKAGHGAGKPTNKRIEEQVDILCFLMNSMNLKFIE
notes: full-length ORF (no signal peptide identified), N-terminal FLAG and 10xHis tag, pNYCOMPS-LIC vector, E. coli BL21(DE3), soluble fraction, Ni-NTA, about 80 kDa, tags not reported cut
Regarding B1, the Km is on record as 211 ± 53 µM.
